From patent publication US20250250587A1 (published 2025)

Target: T1, Neo12 (neoantigen; source protein not named) peptide on HLA-A*02:01 (human)
T1 peptide: YLTHRVDVI
Assay: multimer staining

binding result: recognises
B1: Neo12 neoTCR (TCR, V domains shown)
Valpha: QKEVEQDPGPLSVPEGAIVSLNCTYSNSAFQYFMWYRQYSRKGPELLMYTYSSGNKEDGRFTAQVDKSSKYISLFIRDSQPSDSATYLCAMSEDYKLSFGAGTTVTVRA
Vbeta: ETGVTQTPRHLVMGMTNKKSLKCEQHLGHNAMYWYKQSAKKPLELMFVYSLEERVENNSVPSRFSPECPNSSHLFLHLHTLQPEDSALYLCASSQSRGAQQYFGPGTRLTVT
